Target: MBP-BSU1 (Arabidopsis, UniProt Q9LR78 1-793)
Experiment: pull-down

Chain of MBP-BSU1 (Q9LR78 whole entry): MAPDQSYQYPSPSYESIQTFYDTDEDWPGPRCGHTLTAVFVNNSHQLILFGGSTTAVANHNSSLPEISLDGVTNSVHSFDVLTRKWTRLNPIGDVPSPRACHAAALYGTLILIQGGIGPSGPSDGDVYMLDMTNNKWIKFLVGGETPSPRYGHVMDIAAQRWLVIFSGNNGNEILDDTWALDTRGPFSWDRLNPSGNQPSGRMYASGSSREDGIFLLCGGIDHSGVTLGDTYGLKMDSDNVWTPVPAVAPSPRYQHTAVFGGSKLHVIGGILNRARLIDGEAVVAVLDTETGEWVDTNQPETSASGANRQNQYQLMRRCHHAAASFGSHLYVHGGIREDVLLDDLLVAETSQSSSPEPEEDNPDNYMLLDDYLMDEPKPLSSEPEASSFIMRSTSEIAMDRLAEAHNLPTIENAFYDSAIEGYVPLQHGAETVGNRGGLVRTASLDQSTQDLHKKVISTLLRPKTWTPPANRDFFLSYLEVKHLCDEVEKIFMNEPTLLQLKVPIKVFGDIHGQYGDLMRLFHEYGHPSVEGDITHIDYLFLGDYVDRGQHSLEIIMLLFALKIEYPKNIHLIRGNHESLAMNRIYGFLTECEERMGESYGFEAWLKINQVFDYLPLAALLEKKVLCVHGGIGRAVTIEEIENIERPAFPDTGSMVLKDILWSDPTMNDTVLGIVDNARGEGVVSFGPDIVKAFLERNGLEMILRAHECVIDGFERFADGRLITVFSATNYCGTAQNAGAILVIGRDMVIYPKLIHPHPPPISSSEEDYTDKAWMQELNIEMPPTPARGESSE

B1: BSK1-myc (natural protein, UniProt Q944A7 1-512, looked up)
chain: MGCCQSLFSGDNPLGKDGVQPQPLSQNNHGGATTADNGGSGGASGVGGGGGGGGIPSFSEFSFADLKAATNNFSSDNIVSESGEKAPNLVYKGRLQNRRWIAVKKFTKMAWPEPKQFAEEAWGVGKLRHNRLANLIGYCCDGDERLLVAEFMPNDTLAKHLFHWENQTIEWAMRLRVGYYIAEALDYCSTEGRPLYHDLNAYRVLFDEDGDPRLSCFGLMKNSRDGKSYSTNLAYTPPEYLRNGRVTPESVTYSFGTVLLDLLSGKHIPPSHALDMIRGKNIILLMDSHLEGKFSTEEATVVVELASQCLQYEPRERPNTKDLVATLAPLQTKSDVPSYVMLGIKKQEEAPSTPQRPLSPLGEACSRMDLTAIHQILVMTHYRDDEGTNELSFQEWTQQMKDMLDARKRGDQSFREKDFKTAIDCYSQFIDVGTMVSPTVFGRRSLCYLLCDQPDAALRDAMQAQCVYPDWPTAFYMQSVALAKLNMNTDAADMLNEAAQLEEKRQRGGRGS
B1: binds.

From publication PMC7144476 (Molecular plant, 2015)
